Drawing on publication PMC9396614, this text covers reduction of the nucleation units generated during Aβ42^arc fibrillization, calculated from the fitted ThT kinetics, with monomeric rh Bri2 BRICHOS up to an equal ratio for 1 substance.

For this assay, the target named is Arctic mutant (E22G) amyloid-β 1-42 peptide (human).

As for “recombinant human Bri2 BRICHOS domain, monomer (domain or fragment)”, the reduction of the nucleation units generated during Aβ42^arc fibrillization, calculated from the fitted ThT kinetics, with monomeric rh Bri2 BRICHOS up to an equal ratio was 80%.
